Experimental data from patent US20200330514A1 (TORQUE THERAPEUTICS, published 2020).

T1: human CD45 receptor on the surface of human T cells (human, UniProt P08575 26-1306)
T1 construct: whole, on cells; also called cellular CD45; leukocyte common antigen
T1 sequence (looked up): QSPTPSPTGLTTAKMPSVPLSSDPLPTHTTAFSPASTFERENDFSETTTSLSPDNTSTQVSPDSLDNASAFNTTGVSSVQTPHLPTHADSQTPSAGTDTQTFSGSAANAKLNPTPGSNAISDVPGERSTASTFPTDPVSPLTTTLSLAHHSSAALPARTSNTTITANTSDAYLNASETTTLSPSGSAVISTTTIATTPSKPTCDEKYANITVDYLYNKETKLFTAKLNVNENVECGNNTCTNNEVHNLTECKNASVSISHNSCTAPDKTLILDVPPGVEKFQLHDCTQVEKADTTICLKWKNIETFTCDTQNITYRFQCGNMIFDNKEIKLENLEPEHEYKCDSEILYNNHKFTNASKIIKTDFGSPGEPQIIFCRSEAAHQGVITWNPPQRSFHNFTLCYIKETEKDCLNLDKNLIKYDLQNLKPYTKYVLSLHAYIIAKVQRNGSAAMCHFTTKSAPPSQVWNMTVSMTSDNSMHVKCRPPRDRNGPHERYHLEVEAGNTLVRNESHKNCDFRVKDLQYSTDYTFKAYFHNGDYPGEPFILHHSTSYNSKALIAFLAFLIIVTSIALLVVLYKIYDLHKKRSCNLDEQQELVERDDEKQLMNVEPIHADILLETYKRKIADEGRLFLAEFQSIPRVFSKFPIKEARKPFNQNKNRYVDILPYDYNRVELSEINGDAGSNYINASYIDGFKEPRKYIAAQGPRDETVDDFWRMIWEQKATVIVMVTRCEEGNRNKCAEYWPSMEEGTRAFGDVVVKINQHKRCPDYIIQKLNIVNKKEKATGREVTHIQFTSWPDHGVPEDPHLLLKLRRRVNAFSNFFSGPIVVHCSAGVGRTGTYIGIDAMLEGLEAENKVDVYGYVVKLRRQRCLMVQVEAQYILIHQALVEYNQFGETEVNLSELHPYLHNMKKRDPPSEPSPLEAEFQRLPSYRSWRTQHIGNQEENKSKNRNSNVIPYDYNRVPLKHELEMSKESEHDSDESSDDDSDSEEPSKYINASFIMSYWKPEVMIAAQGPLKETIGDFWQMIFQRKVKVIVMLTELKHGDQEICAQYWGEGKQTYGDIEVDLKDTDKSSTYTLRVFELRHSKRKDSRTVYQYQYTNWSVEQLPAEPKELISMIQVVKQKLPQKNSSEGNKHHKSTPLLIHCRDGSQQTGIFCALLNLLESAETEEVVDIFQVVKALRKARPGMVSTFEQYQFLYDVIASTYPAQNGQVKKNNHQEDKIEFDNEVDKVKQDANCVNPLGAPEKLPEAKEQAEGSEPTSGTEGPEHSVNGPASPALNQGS

T2: mouse CD45 on the surface of mouse T cells (mouse, UniProt P06800 26-1293)
T2 construct: whole, on cells
T2 sequence (looked up): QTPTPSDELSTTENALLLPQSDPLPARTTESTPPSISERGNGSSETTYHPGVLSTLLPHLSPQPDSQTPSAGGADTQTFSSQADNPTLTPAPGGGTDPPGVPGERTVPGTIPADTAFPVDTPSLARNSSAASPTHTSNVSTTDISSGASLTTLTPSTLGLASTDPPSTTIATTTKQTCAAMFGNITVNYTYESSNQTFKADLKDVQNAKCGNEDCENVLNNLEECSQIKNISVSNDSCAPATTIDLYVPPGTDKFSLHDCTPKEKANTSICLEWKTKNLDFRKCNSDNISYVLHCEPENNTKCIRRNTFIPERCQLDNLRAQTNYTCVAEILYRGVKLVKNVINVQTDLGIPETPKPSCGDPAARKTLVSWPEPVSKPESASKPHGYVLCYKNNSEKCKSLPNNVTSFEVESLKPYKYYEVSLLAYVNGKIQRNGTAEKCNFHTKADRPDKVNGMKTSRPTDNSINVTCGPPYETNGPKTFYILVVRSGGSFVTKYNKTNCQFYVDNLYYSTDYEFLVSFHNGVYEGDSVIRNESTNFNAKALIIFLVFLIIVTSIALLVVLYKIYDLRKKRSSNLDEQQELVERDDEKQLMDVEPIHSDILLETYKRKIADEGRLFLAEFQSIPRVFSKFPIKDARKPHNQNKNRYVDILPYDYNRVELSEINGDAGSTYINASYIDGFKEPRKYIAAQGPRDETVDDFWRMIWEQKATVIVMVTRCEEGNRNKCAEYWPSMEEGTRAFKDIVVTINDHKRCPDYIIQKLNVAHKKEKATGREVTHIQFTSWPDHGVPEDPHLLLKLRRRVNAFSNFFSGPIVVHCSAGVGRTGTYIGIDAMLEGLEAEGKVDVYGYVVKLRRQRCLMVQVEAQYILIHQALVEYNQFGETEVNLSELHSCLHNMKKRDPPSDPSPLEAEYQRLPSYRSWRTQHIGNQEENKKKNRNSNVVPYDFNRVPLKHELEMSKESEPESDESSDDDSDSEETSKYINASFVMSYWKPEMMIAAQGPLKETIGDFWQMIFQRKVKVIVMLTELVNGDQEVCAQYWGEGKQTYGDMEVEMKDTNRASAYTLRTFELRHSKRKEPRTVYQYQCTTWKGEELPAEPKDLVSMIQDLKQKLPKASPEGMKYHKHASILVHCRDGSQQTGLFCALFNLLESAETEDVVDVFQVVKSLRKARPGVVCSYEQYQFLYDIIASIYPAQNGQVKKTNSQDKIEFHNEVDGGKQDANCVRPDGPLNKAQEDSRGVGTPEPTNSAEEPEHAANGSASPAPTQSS


Columns and labels:
[1] = biological target: T1, human CD45 receptor on the surface of …; test: flow cytometry titration on activated primary human CD8 T cells, anti-human IgG-Fc detection
Description: To evaluate whether anti-CD45 antibodies other than BC8 are capable of generating IFMs with improved potency, we evaluated two additional anti-CD45 monoclonal antibodies (mAb clones 9.4 and 4B2). We first evaluated the binding affinities of chimeric IgG forms of these antibodies to CD45 expressed on the surface of activated CD8 T cells. The chimeric antibodies each comprise mouse variable domains and human constant region (human constant kappa domain and human IgG4 containing an S228P mutation to stabilize the IgG4 hinge region). For comparison with previous results we evaluated these antibodies alongside chBC8, hBC8(23), and a non-binding variant hBC8-null. The humanized BC8 antibody consists of variable domains containing CDR regions grafted from BC8, and the hBC8-null variant contains an SGGGS substitution in the heavy-chain CDR3, which ablates binding to CD45 (FIG. 10A). […]
Cell binding assay. […] Cells were washed with MACS buffer (PBS, 2% FBS, 1 mM EDTA) three times, and antibody binding was detected using a PE-conjugated anti-human IgG-Fc antibody (BioLegend, cat. no. HP6017) for 20 min. at 4° C. […]

[2] = biological target: T2, mouse CD45 on the surface of mouse T …; test: pulse incubation at 125 nM on activated mouse CD8 T cells, anti-mouse IL-12 staining by flow cytometry (FIG. 32)
Experimental: We evaluated the ability of tethered fusions comprising an antibody specific for mouse CD45 and the mouse scIL-12p70 cytokine to facilitate loading and persistence of IL-12 on the surface of mouse T cells. Prior to incubation with the mouse IL12-TFs, mouse CD8 T cells were isolated from Pmel mice, activated for two days using antibodies against mouse CD3 and CD28 receptors, and then expanded in the presence of IL-21 for two days. Briefly, isolated CD8 T cells were incubated in full medium (containing RPMI 1640, 10% FBS, insulin-transferrin-selenium, penicillin/streptomycin, and 50 uM beta-mercaptoethanol) in Nunc HighBind plates that were previously coated with antibodies against mouse CD3 and CD28 receptors; the CD3 and CD28 antibodies were coated at concentrations of 0.5 ug/mL and 5 ug/mL, respectively. After approximately 24 hr incubation on the antibody-coated plates IL-2 and IL-7 were added to a final concentrations of 20 ng/mL and 0.5 ng/mL respectively. After a second day of incubation, cells were recovered from the antibody-coated plates and diluted to a density of approximately 200,000 cells/mL into medium containing IL-21 at a final concentration of 20 ng/mL. […] On Days 0, 1, 3, and 5 after the pulse incubation cells were immunostained using antibodies specific to mouse IL-12 and analyzed on a FACSCelesta using Diva Software; data was analyzed using FlowJo. […]

Row | binding result [1] | binding result [2] | Binder
1 | no binding (tested: 500 nM) | – | hBC8-null humanized BC8 antibody with SGGGS substitution in CDR-H3 (IgG form) (antibody, V domains shown, constant regions of the tested antibody not spelled out; also called hBC8(23)-null) VH: EVQLVESGGGLVQPGGSLRLSCAASGFDFSRYWMSWVRQAPGKGLEWIGEINPTSSTINFADSVKGRFTISRDNAKNSLYLQMNSVRDEDTAVYYCARGSGGGSGDAMDYWGQGTLVTVSS VL: EIVLTQSPATLSLSLGERATISCRASKSVSTSGYSYLHWYQQKPGQAPKLLIYLASNRATGVPARFSGSGPGTDFTLTISSLEPEDFATYYCQHSRELPFTFGQGTKLEIK
2 | – | binds | chM1Fab-M1scFv-scIL-12p70 (other) heavy: QVNLLQSGAALVKPGASVKLSCKASGYTFTDYYIHWVKQSHGKSLEWVAYINPDRDYTNYNEKFKSKATLTVDKSTNTAYMELSRLTSEDSATFYCTRRLYDGAYYYSWFAYWGQGTLVTVSSASTKGPSVFPLAPSSKSTSGGTAALGCLVKDYFPEPVTVSWNSGALTSGVHTFPAVLQSSGLYSLSSVVTVPSSSLGTQTYICNVNHKPSNTKVDKKVEPKSCGGGGSGGGGSGGGGSQVNLLQSGAALVKPGASVKLSCKASGYTFTDYYIHWVKQSHGKSLEWVAYINPDRDYTNYNEKFKSKATLTVDKSTNTAYMELSRLTSEDSATFYCTRRLYDGAYYYSWFAYWGQGTLVTVSSGGGGSGGGGSGGGGSGGGGSDIQMTQSPHSLSASLGETVSIECLASEGISNYLAWYQQKPGKSPQLLIYYGSRLQDGVPSRFSGSGSGTQYSLRITNMQPEDEGVYYCQQGYKYPYTFGAGTKLELK light: DIQMTQSPHSLSASLGETVSIECLASEGISNYLAWYQQKPGKSPQLLIYYGSRLQDGVPSRFSGSGSGTQYSLRITNMQPEDEGVYYCQQGYKYPYTFGAGTKLELKRTVAAPSVFIFPPSDEQLKSGTASVVCLLNNFYPREAKVQWKVDNALQSGNSQESVTEQDSKDSTYSLSSTLTLSKADYEKHKVYACEVTHQGLSSPVTKSFNRGECGGGGSGGGGSGGGGSMWELEKDVYVVEVDWTPDAPGETVNLTCDTPEEDDITWTSDQRHGVIGSGKTLTITVKEFLDAGQYTCHKGGETLSHSHLLLHKKENGIWSTEILKNFKNKTFLKCEAPNYSGRFTCSWLVQRNMDLKFNIKSSSSSPDSRAVTCGMASLSAEKVTLDQRDYEKYSVSCQEDVTCPTAEETLPIELALEARQQNKYENYSTSFFIRDIIKPDPPKNLQMKPLKNSQVEVSWEYPDSWSTPHSYFSLKFFVRIQRKKEKMKETEEGCNQKGAFLVEKTSTEVQCKGGNVCVQAQDRYYNSSCSKWACVPCRVRSGGGGSGGGGSGGGGSGGGGSRVIPVSGPARCLSQSRNLLKTTDDMVKTAREKLKHYSCTAEDIDHEDITRDQTSTLKTCLPLELHKNESCLATRETSSTTRGSCLPPQKTSLMMTLCLGSIYEDLKMYQTEFQAINAALQNHNHQQIILDKGMLVAIDELMQSLNHNGETLRQKPPVGEADPYRVKMKLCILLHAFSTRVVTINRVMGYLSSA
